In patent US20250144178A1, “PHARMACEUTICAL COMPOSITION FOR CANCER TREATMENT COMPRISING FUSION PROTEIN INCLUDING IL-12 AND ANTI-FAP ANTIBODY AND ANTICANCER AGENT” (KANAPH THERAPEUTICS INC., priority 2022, published 2025):

Experiments:
[1] = target: T1, recombinant mouse FAP (Mus musculus, UniProt P97321); experiment: Surface plasmon resonance binding to recombinant mouse FAP; conditions: SPR, 2 μg/ml protein, FIGS. 13 and 14
T1 sequence (P97321 1-761): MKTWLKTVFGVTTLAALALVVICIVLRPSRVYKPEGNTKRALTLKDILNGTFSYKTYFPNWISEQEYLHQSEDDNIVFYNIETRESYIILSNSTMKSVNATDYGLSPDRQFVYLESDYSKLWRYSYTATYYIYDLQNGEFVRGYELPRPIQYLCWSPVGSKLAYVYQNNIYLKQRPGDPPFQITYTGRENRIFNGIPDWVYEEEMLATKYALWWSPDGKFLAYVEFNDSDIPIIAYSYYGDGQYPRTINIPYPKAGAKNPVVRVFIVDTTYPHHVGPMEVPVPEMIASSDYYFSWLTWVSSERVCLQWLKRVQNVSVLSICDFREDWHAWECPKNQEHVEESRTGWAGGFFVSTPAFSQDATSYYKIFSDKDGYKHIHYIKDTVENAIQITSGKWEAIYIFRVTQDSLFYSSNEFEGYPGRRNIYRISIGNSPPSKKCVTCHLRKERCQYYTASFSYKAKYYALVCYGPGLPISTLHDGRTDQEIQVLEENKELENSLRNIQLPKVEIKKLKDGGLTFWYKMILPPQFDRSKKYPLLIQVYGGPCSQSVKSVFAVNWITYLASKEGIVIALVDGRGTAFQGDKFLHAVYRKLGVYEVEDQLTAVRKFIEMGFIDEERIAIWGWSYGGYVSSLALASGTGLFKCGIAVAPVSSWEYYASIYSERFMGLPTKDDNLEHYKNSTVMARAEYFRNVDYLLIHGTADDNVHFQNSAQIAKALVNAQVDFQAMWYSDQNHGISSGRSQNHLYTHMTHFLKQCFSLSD
Procedure: The surface of the CM5 chip was activated with a 1:1 mixture of […] (N-hydroxysuccinimide) and […] (1-Ethyl-3-(3-dimethylaminopropyl) carbodiimide), and 25 μg/ml of anti-mouse IgG (Fc) antibody was immobilized for 400 seconds at a rate of 10 μl/min. The remaining active ester groups were blocked with 1 M ethanolamine. T1.01m, T1.02m and T1.03m were diluted to 2 μg/ml and reacted on the CM5 chip immobilized with the anti-mouse IgG (Fc) antibody. The recombinant mouse FAP was diluted to 200 nM in 1×HBS-EP+buffer solution and diluted by serial dilution. The diluted recombinant mouse FAP was reacted at a rate of 30 μl/min. The association and dissociation times were 180 seconds and 400 seconds, respectively. After the dissociation, stabilization was performed for 60 seconds, and then a regeneration was performed for 30 seconds with a 10 mM glycine pH 1.5 solution at a rate of 30 μl/min.

[2] = test system: mouse FAP overexpressing B16F10 melanoma; experiment: Melanoma model, mouse FAP overexpressing B16F10; assay type: in vivo, C57BL/6J mice; conditions: 10 μg and 100 μg i.v. once, control PBS, FIG. 30
Procedure: In order to identify the anticancer effect through immune activation of the fusion protein, mouse FAP was overexpressed in the mouse melanoma cell line B16F10, which is known to have little immune cell infiltration, and then transplanted into C57BL/6J mice, and the tumor growth inhibitory ability was evaluated.
Specifically, the cells in culture were resuspended in Hanks' Balanced salt solution (HBSS, Gibco), and then 100 μl of 1×10^6 tumor cells per each mouse were transplanted into the subcutaneous region of the left the dorsal flank side of 6-week-old C57BL/6J mice.
Next, for drug efficacy evaluation, when the size of the tumor reached 70 to 100 mm^3, the mice were randomly divided into groups. As the control, PBS was administered, and as the test group, T1.03m was intravenously administered once at a dose of 10 μg and 100 μg.

B1: T1.01m: K&H bispecific: anti-mu FAP/mu IL-12, mu IgG2a DANG (seq18, seq19, seq20) (antibody)
heavy: QVQLQQSGAELARPGASVNLSCKASGYTFTNNGINWLKQRTGQGLEWIGEIYPRSTNTLYNEKFKGKATLTADRSSNTAYMELRSLTSEDSAVYFCARTLTAPFAFWGQGTLVTVSAAKTTAPSVYPLAPVCGDTTGSSVTLGCLVKGYFPEPVTLTWNSGSLSSGVHTFPAVLQSDLYTLSSSVTVTSSTWPSQSITCNVAHPASSTKVDKKIEPRGPTIKPCPPCKCPAPNLLGGPSVFIFPPKIKDVLMISLSPIVTCVVVAVSEDDPDVQISWFVNNVEVHTAQTQTHREDYGSTLRVVSALPIQHQDWMSGKEFKCKVNNKDLPAPIERTISKPKGSVRAPQVYVLPPPEEEMTKKQVTLWCMVTDFMPEDIYVEWTNNGKTELNYKNTEPVLDSDGSYFMYSKLRVEKKNWVERNSYSCSVVHEGLHNHHTTKSFSRTPGK
light: QIVLTQSPAIMSASPGEKVTMTCSASSGVNFMHWYQQKSGTSPKRWIFDTSKLASGVPARFSGSGSGTSYSLTISSMEAEDAATYYCQQWSFNPPTFGGGTKLEIKRADAAPTVSIFPPSSEQLTSGGASVVCFLNNFYPKDINVKWKIDGSERQNGVLNSWTDQDSKDSTYSMSSTLTLTKDEYERHNSYTCEATHKTSTSPIVKSFNRNEC
chain: MWELEKDVYVVEVDWTPDAPGETVNLTCDTPEEDDITWTSDQRHGVIGSGKTLTITVKEFLDAGQYTCHKGGETLSHSHLLLHKKENGIWSTEILKNFKNKTFLKCEAPNYSGRFTCSWLVQRNMDLKFNIKSSSSSPDSRAVTCGMASLSAEKVTLDQRDYEKYSVSCQEDVTCPTAEETLPIELALEARQQNKYENYSTSFFIRDIIKPDPPKNLQMKPLKNSQVEVSWEYPDSWSTPHSYFSLKFFVRIQRKKEKMKETEEGCNQKGAFLVEKTSTEVQCKGGNVCVQAQDRYYNSSCSKWACVPCRVRSGGGGSGGGGSGGGGSRVIPVSGPARCLSQSRNLLKTTDDMVKTAREKLKHYSCTAEDIDHEDITRDQTSTLKTCLPLELHKNESCLATRETSSTTRGSCLPPQKTSLMMTLCLGSIYEDLKMYQTEFQAINAALQNHNHQQIILDKGMLVAIDELMQSLNHNGETLRQKPPVGEADPYRVKMKLCILLHAFSTRVVTINRVMGYLSSAGGGGSGGGGSEPRGPTIKPCPPCKCPAPNLLGGPSVFIFPPKIKDVLMISLSPIVTCVVVAVSEDDPDVQISWFVNNVEVHTAQTQTHREDYGSTLRVVSALPIQHQDWMSGKEFKCKVNNKDLPAPIERTISKPKGSVRAPQVYVLPPPEEEMTKKQVTLSCAVTDFMPEDIYVEWTNNGKTELNYKNTEPVLDSDGSYFMVSKLRVEKKNWVERNSYSCSVVHEGLHNHHTTKSFSRTPGK
[1]
  Binding to recombinant mouse FAP: may bind to recombinant mouse FAP to specifically target FAP
[2]
  tumor growth inhibitory ability compared to the control: high tumor growth inhibitory ability
